Measured values as given in publication PMC7954794, “Protein context shapes the specificity of SH3 domain-mediated interactions in vivo” (Nature Communications, 2021).

Columns and labels:
Assay type in all cases: cell-based, Saccharomyces cerevisiae
[1] = test system: 575 putative partners (preys) of 22 WT SH3-containing proteins; experiment: DHFR-PCA on solid medium, WT and SH3-deleted baits (Fig. 1B); set-up: key to Score: 0: SH3-independent; 1: SH3-dependent PPIs; 2: SH3-inhibited PPIs; settings: for medrep (log2 median colony size normalized to plate background, PCA score): label = prey; for Ratio (SH3-deleted/WT medrep): only significant differences shown, PPIs completely lost have a ratio of 0.1, gained PPIs 2.5
Method in brief: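 Interactions scored by DHFR protein-fragment complementation on solid medium using robotic pinning; preys (DHFR F[3] fusions) arrayed in duplicate with control borders. Baits carried C-terminal DHFR F[1,2]-FLAG tags, tested as wild type and as SH3-deleted versions carrying a flexible Gly/Ser stuffer.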

Abp1 PPIs = experiment: DHFR-PCA of Abp1 SH3-swapped baits (Fig. 2B-D, S2C, S2F); settings: Fig2B; bait ABP1, label = prey; Replicates 4
Method in brief: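 Interactions were scored by DHFR protein-fragment complementation. DHFR F[1,2]-tagged Abp1 strains, whose SH3 was swapped for yeast or human ortholog domains, were crossed on YPD at 30 °C for 48 h with a 1536-format array of 575 prey-DHFR F[3] strains and 40 negatives, giving four replicates per pair. PCA selection lasted 4 days after double diploid selection.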

ABP1 = experiment: DHFR-PCA on solid medium, bait ABP1 (Fig. 1B); settings: bait ABP1, label = prey; 2-4 replicates
Text: (§1) Supplement 41467_2021_21873_MOESM8_ESM.xlsx, sheet "Fig1B" | column: medsize; medrep; Ratio; Score

BBC1 = experiment: DHFR-PCA on solid medium, bait BBC1 (Fig. 1B); settings: bait BBC1, label = prey; for medrep (log2 median colony size normalized to plate background, PCA score): 2-4 replicates; for Ratio (SH3-deleted/WT medrep): only significant differences showed, PPIs completely lost have a ratio of 0.1 and the gained PPIs 2.5
Text: as §1

BEM1-1 = experiment: DHFR-PCA on solid medium, bait BEM1-1 (Fig. 1B); settings: bait BEM1-1, label = prey
Text: as §1

BEM1-2 = experiment: DHFR-PCA on solid medium, bait BEM1-2 (Fig. 1B); settings: bait BEM1-2, label = prey; 2-8 replicates
Text: as §1

[2] = bait SLA1-3, DHFR-PCA, Replicates 4 (2 for YCR009C, YDR388W, YIL033C)
[3] = bait SLA1-2, DHFR-PCA, Replicates 4 (2 for YCR009C, YDR388W)

Row | Molecule | medrep (log2 median colony size normalized to plate background, PCA score) [1, 2] | Score ([1]; bait SLA1-3, label = prey) | medrep (log2 median colony size normalized to plate background) (Abp1 PPIs) | medrep (log2 median colony size normalized to plate background, PCA score) (ABP1) | medrep (log2 median colony size normalized to plate background, PCA score) (BBC1) | Ratio (SH3-deleted/WT medrep) (BBC1) | medrep (log2 median colony size normalized to plate background, PCA score) [1, 3] | Score ([1]; bait SLA1-2, label = prey) | Ratio (SH3-deleted/WT medrep) ([1]; bait SLA1-2, label = prey) | medrep (log2 median colony size normalized to plate background, PCA score) (BEM1-1; 2-8 replicates) | Ratio (SH3-deleted/WT medrep) (BEM1-1; only significant differences showed, PPIs completely lost have a ratio of 0.1 and the gained PPIs 2.5) | medrep (log2 median colony size normalized to plate background, PCA score) (BEM1-2)
1 | YBL007C (protein, UniProt P32790 1-1244, looked up) Actin cytoskeleton-regulatory …: MTVFLGIYRAVYAYEPQTPEELAIQEDDLLYLLQKSDIDDWWTVKKRVIGSDSEEPVGLVPSTYIEEAPVLKKVRAIYDYEQVQNADEELTFHENDVFDVFDDKDADWLLVKSTVSNEFGFIPGNYVEPENGSTSKQEQAPAAAEAPAATPAAAPASAAVLPTNFLPPPQHNDRARMMQSKEDQAPDEDEEGPPPAMPARPTATTETTDATAAAVRSRTRLSYSDNDNDDEEDDYYYNSNSNNVGNHEYNTEYHSWNVTEIEGRKKKKAKLSIGNNKINFIPQKGTPHEWSIDKLVSYDNEKKHMFLEFVDPYRSLELHTGNTTTCEEIMNIIGEYKGASRDPGLREVEMASKSKKRGIVQYDFMAESQDELTIKSGDKVYILDDKKSKDWWMCQLVDSGKSGLVPAQFIEPVRDKKHTESTASGIIKSIKKNFTKSPSRSRSRSRSKSNANASWKDDELQNDVVGSAAGKRSRKSSLSSHKKNSSATKDFPNPKKSRLWVDRSGTFKVDAEFIGCAKGKIHLHKANGVKIAVAADKLSNEDLAYVEKITGFSLEKFKANDGSSSRGTDSRDSERERRRRLKEQEEKERDRRLKERELYELKKARELLDEERSRLQEKELPPIKPPRPTSTTSVPNTTSVPPAESSNNNNSSNKYDWFEFFLNCGVDVSNCQRYTINFDREQLTEDMMPDINNSMLRTLGLREGDIVRVMKHLDKKFGRENIASIPTNATGNMFSQPDGSLNVATSPETSLPQQLLPQTTSPAQTAPSTSAETDDAWTVKPASKSESNLLSKKSEFTGSMQDLLDLQPLEPKKAAASTPEPNLKDLEPVKTGGTTVPAAPVSSAPVSSAPAPLDPFKTGGNNILPLSTGFVMMPMITGGDMLPMQRTGGFVVPQTTFGMQSQVTGGILPVQKTGNGLIPISNTGGAMMPQTTFGAAATVLPLQKTGGGLIPIATTGGAQFPQTSFNVQGQQQLPTGSILPVQKTANGLISANTGVSMPTVQRTGGTMIPQTSFGVSQQLTGGAMMTQPQNTGSAMMPQTSFNAVPQITGGAMMPQTSFNALPQVTGGAMMPLQRTGGALNTFNTGGAMIPQTSFSSQAQNTGGFRPQSQFGLTLQKTGGIAPLNQNQFTGGAMNTLSTGGVLQQQQPQTMNTFNTGGVMQELQMMTTFNTGGAMQQPQMMNTFNTDGIMQQPQMMNTFNTGGAMQQPQQQALQNQPTGFGFGNGPQQSRQANIFNATASNPFGF | 4.843 | 0 | 4.393 | 4.393 | 2.803 | 0.1 | – | – | – | – | – | –
2 | YGR229C (protein, UniProt P32566 1-505, looked up) Cell wall assembly regulator …: MDLFKRKVKEWVYSLSTDDHYAEYNPDETPTFNMGKRLNSNNGQVNPSQMHLNSVDEEMSMGFQNGVPSNEDINIDEFTSTESNDGVSETLLAWRHIDFWTSEHNPDLNATLSDPCTQNDITHAEEDLEVSFPNPVKASFKIHDGQEDLESMTGTSGLFYGFQLMTLDQVVAMTQAWRNVAKNLNKRSQQGLSHVTSTGSSSSMERLNGNKFKLPNIPDQKSIPPNAVQPVYAHPAWIPLITDNAGNHIGVDLAPGPNGKYAQIITFGRDFDTKFVIAENWGEFLLSFANDLEAGNWYLVDDNDDYFSGDGELVFRDKKSNGPIQDYFEVLKRRTWIKYQENLRSQQQKSQPDTSLQEQKYVPASQKKVAAEQPSTLNAESIKGEDSGSADVQSVQDHESVKIVKTEPSEAETTTVNTESLGQAEHEIKADNVDIKQESERKEDEKQPKVEEKEHVENEHVTESAKKDDDVNKQTEEMNKKEENEIRSDDAKVEEAREEFENIAL | 3.075 | 0 | – | 3.977 | 2.755 | 0.1 | 3.075 | 1 | 0.1 | 1.341 | 0.1 | 1.341
3 | YIR006C (protein, UniProt P32521 1-1480, looked up) Actin cytoskeleton-regulatory …: MYNPYQQQGMGYQQQQQQQQQQPNGFYPQQQQGQSSNQPQGQPQPQQQMAFNQPQATGIGGMPQSFGNSFSSMPQQPQTGYNNNGNNGSVYGNGNFGQQPQQQQQQAKPQHTGYVPNSSMPMMNTTGTMPPPNPAQQPQLQSIQPQGTGYYQAANTANVHSVQPLQSQGTGYYVSTPNLISSNQTQQPLQAQGTGYYQSQPQQVPPPQQAQSLQPLKPQQTGFYLQPQNQAPLEPLKPTATGFVNSFANNGLNNDIKIPAIRLSFITAQDQAKFETLFRSIVTNGSNTVSGANCRKILMRSGLPPSQLARIWTLCDTSKAGELLFPEFALAMHLINDVLQGDTIPYELDSKTKNEVSSFIDAINLSIANQDSSANDAPKTPFDEFITAGVQNLQPQPTGYMPQTSFGIPLQSQITGGGVASALNPQSTGFMAPTTFNMSMNTGTPGLNPQITGGAPASMQPNITGNALQPQTTGMMPQTTGMMPQTTGMMPQTSFGVNLGPQLTGGALQSQYTGGYGSVMPQQSGPASMPNLSFNQQGLQSQLTGLQPQPTGFLPPSNFSATMPLTAQKTGFGNNEIYTKSNFNNNLIDNSSQDKISTEEKSLFYKIFETFDTQNKGLLDSPTAVEIFRKSGLNRADLEQIWNLCDINNTGQLNKQEFALGMHLVYGKLNGKPIPNVLPSSLIPSSTKLLDNLKNQLKTEPTTTKEKPSFGKIDALSYKNNDDDVLPNYRNRRKVYSAKNEEQSSFSSPSAKSVNHSSSTLQTDDISVDKTVEKKTAKPKYAGFSREINLKNIASLENEIKNISNPENCYDSSIPSDLTSRFDAIIAKLPNLFNEISTIDNEITNAKIQLYRKKNPSSIIGSGPNGEITENDRKKAKSRALLRARMSALTGKSTESEDSLSMEDEQQSAEIKRIQQENGKNQEIIKDIRSSISDISASLKSTMTGSNMISNQEFERWEFGIGLEDGVREFLDDLKSNSNKSVTESSPFVPSSTPTPVDDRSSSPSYSQFKTAEERAAYLKEQAKKRMKEKLAKFDKNRRNVTQSSRSISSENSREQPQQIAGSSNLVEPRATPFQEEKYVEVAQPTQPVQSTQPVQPTQPVQPTQPVQPTQPVQPTQPVQPTQPVQNVYNAKQESDDEDEDDEEKRLQEELKRLKLKKKADKEKRLAALRKQIEDAQNESDEEETNGKDNFGGHVNVPQAAPVAPSAAFSQNSTNAPRSVHAAVTPAAGKNSTGLPSTTMGHNPYFKDASASSTSTFDARAAEMQRRIQRGLDEDEDDGWSDEDESNNRVAVDNKVEEAKIGHPDHARAPPVTAAPLPSVTPVPPAVPVPQANTSNEKSSPIPIAPIPPSVTQEPPVPLAPPLPAVDGFQEPPIPSAPAIATAVQKSGSSTPALAGGVLPPPPPLPTQQASTSEPIIAHVDNYNGAEKGTGAYGSDSDDDVLSIPESVGTDEEEEGAQPVSTAGIPSIPPAGIPPPPPLP | 4.7899 | 0 | – | 5.062 | 1.896 | 0.4416 | – | – | – | – | – | –
4 | YLR337C (protein, UniProt P37370 1-817, looked up) Verprolin: MAGAPAPPPPPPPPALGGSAPKPAKSVMQGRDALLGDIRKGMKLKKAETNDRSAPIVGGGVVSSASGSSGTVSSKGPSMSAPPIPGMGAPQLGDILAGGIPKLKHINNNASTKPSPSASAPPIPGAVPSVAAPPIPNAPLSPAPAVPSIPSSSAPPIPDIPSSAAPPIPIVPSSPAPPLPLSGASAPKVPQNRPHMPSVRPAHRSHQRKSSNISLPSVSAPPLPSASLPTHVSNPPQAPPPPPTPTIGLDSKNIKPTDNAVSPPSSEVPAGGLPFLAEINARRSERGAVEGVSSTKIQTENHKSPSQPPLPSSAPPIPTSHAPPLPPTAPPPPSLPNVTSAPKKATSAPAPPPPPLPAAMSSASTNSVKATPVPPTLAPPLPNTTSVPPNKASSMPAPPPPPPPPPGAFSTSSALSASSIPLAPLPPPPPPSVATSVPSAPPPPPTLTTNKPSASSKQSKISSSSSSSAVTPGGPLPFLAEIQKKRDDRFVVGGDTGYTTQDKQEDVIGSSKDDNVRPSPISPSINPPKQSSQNGMSFLDEIESKLHKQTSSNAFNAPPPHTDAMAPPLPPSAPPPPITSLPTPTASGDDHTNDKSETVLGMKKAKAPALPGHVPPPPVPPVLSDDSKNNVPAASLLHDVLPSSNLEKPPSPPVAAAPPLPTFSAPSLPQQSVSTSIPSPPPVAPTLSVRTETESISKNPTKSPPPPPSPSTMDTGTSNSPSKNLKQRLFSTGGSTLQHKHNTHTNQPDVDVGRYTIGGSNSIVGAKSGNERIVIDDSRFKWTNVSQMPKPRPFQNKTKLYPSGKGSSVPLDLTLFT | 4.892 | 0 | – | 4.481 | 2.429 | 0.57 | 2.095 | 1 | 0.4282 | – | – | –
